Measurements: patent publication US20200247855A1, “THERAPY AND DIAGNOSTICS” (OXFORD UNIVERSITY INNOVATION LIMITED, priority 2017, published 2020)
Changes are numbered by the printed parent chain.

Assays:
CXCL10_HUMAN = target: T1, CXCL10_HUMAN (Homo sapiens, UniProt P02778); assay: Yeast surface display (YSD) FACS binding; conditions: yeast surface display
T1 sequence (P02778 22-98): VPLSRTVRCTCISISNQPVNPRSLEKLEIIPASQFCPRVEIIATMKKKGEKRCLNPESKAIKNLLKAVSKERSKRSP
Method: (§1) Table 1. Tick CKBPs described in PCT/GB2017/050563 and [17]. Tick peptide sequences isolated in yeast surface display fluorescent-activated cell sorting (FACS) screens using a labelled chemokine. Identity with Evasin-1, 4 or 3 was calculated using BLAST. Abbreviations: IXORI—Ixodes ricinus, RHISA—Rhipicephalus sanguineus, AMBMA—Amblyomma maculatum, AMBPA—Amblyomma parvum, AMBTR—Amblyomma triste, AMBAM—Amblyomma americanum, AMBCA—Amblyomma cajennense, RHIPU—Rhipicephalus pulchellus. Table 2A-C. Binding characteristics of tick CKBPs previously disclosed (PCT/GB2017/050563 and [17]). All members of the human chemokine family[164] are listed in column 1. Binding to human chemokines was determined for 14 tick CKBPs using biolayer interferometry (BLI) with calculated Kd shown as Molar (Moles/Litre). Binding data for 17 other novel tick CKBPs was assayed using yeast surface display[17,166],with positive binding results shown as “YES”. For biolayer interferometry, His-tagged purified tick CKBP was bound to a Ni-NINTA sensor on an OctetRed® 384 system, and then binding to each chemokine listed (with the exception of CCL25, CCL26, CXCL16, CXCL17, CXCL4L1, XCL2) was assayed in a cross-binding screen at a chemokine concentration of 300 nM as described. For those chemokines showing binding to a tick CKBP in the cross-binding screen, binding assays were repeated using different doses of chemokine. Association, equilibrium and dissociation data were analysed using Octet software to create corresponding fitted curves, and used to calculate Kd. For yeast surface display, (YSD) background fluorescence was controlled for by using either an empty vector or by omitting the chemokine (i.e. using streptavidin-Alexa647 alone). An arbitrary threshold of >3 fold over background mean fluorescence intensity was chosen to describe confirmed re-tests. Where binding was detected data are indicated as “YES”. […] For yeast surface display data, empty cells represent chemokines that were not tested. Binding data published in relation to previously described tick CKBPs (Evasins-1, 4 and 3) is also shown for comparison in each of FIGS. 2A-C, with the relevant data obtained from publications: [20-22,32]. Table 3: Neutralisation of human chemokines by tick CKBPs previously disclosed (PCT/GB2017/050563 and [17]). Neutralising activity was determined using a quantitative THP1 cell migration assay in a 96-well Boyden chamber with chemokine in the bottom chamber as described. Cells migrating through to the bottom chamber at 4 hours were counted using flow cytometry in a 96 well plate format. IC50 for neutralisation was determined at the chemokine EC80 dose as determined using a range of tick CKBP concentrations. Data was analysed using GraphPad Prism to determine IC50, which is shown as Molar (Moles/Litre). Empty cells represent experiments not done. Table 4—Other previously described tick CKBPs. Tick CKBPs that were also described in PCT/GB2017/050563 and Singh et al. are indicated in “Notes”. Table 5.—Novel tick CKBPs of the invention. Table 6. […] The peptide sequence prefix indicates the identity, and suffix indicate the tick species as follows: AMBCA, Amblyomma cajennense and IXORI, Ixodes ricinus. […] Certain tick peptides e.g. P1074_IXORI were recovered from screens performed with more than one chemokine. Individual yeast clones recovered from the library were re-tested using a FACS (fluorescence activated cell sorting), experiment. The binding of the peptide to the chemokine was assayed by measuring the percent (%), of yeast cells expressing the given peptide that exceeded a background threshold set by measuring the fluorescence of the yeast library pool treated with streptavidin-[…] alone. When more than one independent yeast clone was isolated for a given peptide-chemokine combination, the mean percent shift was calculated and reported in column 3. […]

CCL11_HUMAN = CCL11_HUMAN (Homo sapiens, UniProt P51671); assay: Biolayer interferometry (BLI) binding
Sequence of CCL11_HUMAN (P51671 24-97): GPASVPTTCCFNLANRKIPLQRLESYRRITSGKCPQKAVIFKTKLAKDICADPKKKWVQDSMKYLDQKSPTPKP
Method: as §1

CCL13_HUMAN = CCL13_HUMAN (Homo sapiens, UniProt Q99616); assay: Biolayer interferometry (BLI) binding
Sequence of CCL13_HUMAN (Q99616 17-98): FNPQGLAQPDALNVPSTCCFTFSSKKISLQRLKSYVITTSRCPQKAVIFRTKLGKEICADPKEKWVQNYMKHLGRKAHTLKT
Method: as §1

CCL14_HUMAN = target: T2, CCL14_HUMAN (Homo sapiens, UniProt Q16627); assay: Biolayer interferometry (BLI) binding
T2 sequence (Q16627 20-93): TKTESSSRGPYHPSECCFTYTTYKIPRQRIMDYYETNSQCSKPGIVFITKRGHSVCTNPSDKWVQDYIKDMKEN
Method: as §1

CCL18_HUMAN = target: T3, CCL18_HUMAN (Homo sapiens, UniProt P55774); assay: Biolayer interferometry (BLI) binding
T3 sequence (P55774 21-89): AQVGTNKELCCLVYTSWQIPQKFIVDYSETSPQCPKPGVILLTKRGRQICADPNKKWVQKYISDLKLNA
Method: as §1

CCL2_HUMAN = CCL2_HUMAN (Homo sapiens, UniProt P13500); assay: Biolayer interferometry (BLI) binding
Sequence of CCL2_HUMAN (P13500 24-99): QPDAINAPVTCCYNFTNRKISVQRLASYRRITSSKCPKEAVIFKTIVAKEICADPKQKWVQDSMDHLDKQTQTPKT
Method: as §1

CCL3L1_HUMAN = CCL3L1_HUMAN (Homo sapiens, UniProt P16619); assay: Biolayer interferometry (BLI) binding
Sequence of CCL3L1_HUMAN (P16619 24-93): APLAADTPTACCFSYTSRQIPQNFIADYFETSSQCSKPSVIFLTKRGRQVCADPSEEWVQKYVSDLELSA
Method: as §1

CCL3_HUMAN = target: T4, CCL3_HUMAN (Homo sapiens, UniProt P10147); assay: Biolayer interferometry (BLI) binding
T4 sequence (P10147 24-92): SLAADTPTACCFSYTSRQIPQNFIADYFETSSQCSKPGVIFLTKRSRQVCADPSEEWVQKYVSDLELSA
Method: as §1

CCL4L1_HUMAN = target: T5, CCL4L1_HUMAN (Homo sapiens, UniProt Q8NHW4); assay: Biolayer interferometry (BLI) binding
T5 sequence (Q8NHW4 24-92): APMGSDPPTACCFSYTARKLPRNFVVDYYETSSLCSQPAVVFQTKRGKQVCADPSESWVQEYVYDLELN
Method: as §1

CCL4_HUMAN = target: T6, CCL4_HUMAN (Homo sapiens, UniProt P13236); assay: Biolayer interferometry (BLI) binding
T6 sequence (P13236 24-92): T5 sequence (Q8NHW4 24-92) with G47S
Method: as §1

CCL8_HUMAN = target: T7, CCL8_HUMAN (Homo sapiens, UniProt P80075); assay: Biolayer interferometry (BLI) binding; conditions: read-out: Kd, CCL8_HUMAN
T7 sequence (P80075 24-99): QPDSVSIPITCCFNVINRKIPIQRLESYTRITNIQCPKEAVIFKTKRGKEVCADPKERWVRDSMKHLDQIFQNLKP
Method: as §1

CXCL8_HUMAN = target: T8, CXCL8_HUMAN (Homo sapiens, UniProt P10145); assay: Yeast surface display (YSD) FACS binding; parameters: label (chemical); conditions: FACS re-test; mean percent shift where several clones
T8 sequence (P10145 21-99): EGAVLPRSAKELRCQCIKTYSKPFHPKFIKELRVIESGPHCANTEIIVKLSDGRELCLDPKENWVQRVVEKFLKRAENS
Method: as §1

CCL5_HUMAN = target: T9, CCL5_HUMAN (Homo sapiens, UniProt P13501); assay: Yeast surface display (YSD) FACS binding
T9 sequence (P13501 24-91): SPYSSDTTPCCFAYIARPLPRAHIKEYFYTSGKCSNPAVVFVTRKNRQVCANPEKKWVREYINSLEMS
Method: as §1

CCL7_HUMAN = CCL7_HUMAN (Homo sapiens, UniProt P80098); assay: Biolayer interferometry (BLI) binding
Sequence of CCL7_HUMAN (P80098 24-99): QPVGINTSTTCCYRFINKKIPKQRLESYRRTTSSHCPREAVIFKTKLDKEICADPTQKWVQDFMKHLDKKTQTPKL
Method: as §1

B1: P1224_IXORI: tick CKBP, Ixodes ricinus (protein, listed as Ixodes ricinus)
chain: SDLCKMEAESSPFKLPQSSLLDAPDEEGCKYQLLFVEAEGPLVVNCTKDCPNGKIRTVVEGELCIAMVKTSSSGEATGLVGSCKRGSCVKKDDPCRTFTLSEEGDDDEEDEEEEEDEEEDEEEDEEEEEEDEEEED
- Binding to CXCL10_HUMAN, YSD (CXCL10_HUMAN): YES (An arbitrary threshold of >3 fold over background mean fluorescence intensity was chosen to describe confirmed re-tests. Where binding was detected data are indicated as “YES”)

B2: P1182_AMBMA: tick CKBP, Amblyomma maculatum (protein, listed as Amblyomma maculatum)
chain: EPKDDNDYGGGCPFVVLGNGTHAKPAGCSHLCNGAPETLDNIECYNVTEEVAKRMTPGIPYACWLGWCNKGECKRGNRTEVCYRGSEEE
- Kd (CCL11_HUMAN): 28 nM
- Kd (CCL13_HUMAN): 56 nM
- Kd (CCL14_HUMAN): 50 nM
- Kd (CCL18_HUMAN): 33 nM
- Kd (CCL2_HUMAN): 74 nM
- Kd (CCL3L1_HUMAN): 9.5 nM
- Kd (CCL3_HUMAN): 5.4 nM
- Kd (CCL4L1_HUMAN): 92 nM
- Kd (CCL4_HUMAN): 63 nM
- Kd (CCL8_HUMAN): 29 nM

B3: P1283_IXORI: tick CKBP, Ixodes ricinus (protein, listed as Ixodes ricinus)
chain: KEPEDTTLPPGALVDSPDSDNCSSPHLPYFDETTNMWMGFLAVNCTKKCPVGKHVTVVDGNKCIGTWSFLDELTITVLVGSCKDGFCETDGSSECRNITLAEEDSQEEEGAAAEEEDEEDEEDEEEEEAEEEREDDHDDA
- Binding to CXCL10_HUMAN, YSD (CXCL10_HUMAN): YES (An arbitrary threshold of >3 fold over background mean fluorescence intensity was chosen to describe confirmed re-tests. Where binding was detected data are indicated as “YES”)

B4: P1128_IXORI: novel CXC-binding tick CKBP, Ixodes ricinus (protein, listed as Ixodes ricinus)
chain: KDDEHFSVDYCGMNCTQQEDGSWTACSGRNEECRCYHESGKKNGLCLSTTYIDFSQYGNPSDSDIAAASPRP
- Chemokines bound in yeast surface display and % cells over threshold fluorescence: CXCL8_HUMAN (CXCL8_HUMAN): CXCL8_HUMAN 53%

B5: P1174_IXORI: novel CXC-binding tick CKBP, Ixodes ricinus (protein, listed as Ixodes ricinus)
chain: LNNENELFSVEYCGANCTQQDNGSWTKCKGNCTCYHEDGKRYGLCLSTEYTDFTQFPKPTSEEIADASPRPKETNSH
- Chemokines bound in yeast surface display and % cells over threshold fluorescence: CXCL8_HUMAN (CXCL8_HUMAN): CXCL8_HUMAN 29%

B6: P1063_AMBTR: tick CKBP, Amblyomma triste (protein)
chain: QSEVGKNVPGCGDTETLEAPPQEKPPYYEYKDEEGCTQKVLESWFQAGERSTGRGQKKRGHGRRPSRVLRTVDCRKNCTVGITALPDGHLCLVPRGDPFTRGGAIKYGCYLGDCASGHCQHRYETVSCRLPAPDTTAKPYYVTPEK
modifications: Amblyomma triste
- Binding to CCL5_HUMAN, YSD (CCL5_HUMAN): YES (An arbitrary threshold of >3 fold over background mean fluorescence intensity was chosen to describe confirmed re-tests. Where binding was detected data are indicated as “YES”)

B7: P1219_IXORI: tick CKBP, Ixodes ricinus (protein, listed as Ixodes ricinus)
chain: ASLAKETEDTTLPARALVDSPDSDNCSSPQLPYFDELTYMPLGFLAVNCTKTCPVGKNGTVVNGNKCIVTWSILDVSTITVLVGSCKNGYCISDGSSECRNITLAGEDSQEEEEEAEEDEEEDDGDEEEDEEEDEEENDDD
- Binding to CXCL10_HUMAN, YSD (CXCL10_HUMAN): YES (An arbitrary threshold of >3 fold over background mean fluorescence intensity was chosen to describe confirmed re-tests. Where binding was detected data are indicated as “YES”)

B8: P1127_IXORI: novel CXC-binding tick CKBP, Ixodes ricinus (protein, listed as Ixodes ricinus)
chain: AGKDDEHFSVDYCGMNCTQQEDGSWTACSGRNGECRCYHESGKRSGLCLSTTYIDFSEYGNLSDSDIAAASPRLSMKESH
- Chemokines bound in yeast surface display and % cells over threshold fluorescence: CXCL8_HUMAN (CXCL8_HUMAN): CXCL8_HUMAN 43%

B9: P1180_AMBTR: tick CKBP, Amblyomma triste (protein)
chain: EEPKDGYDYTEGCPFVVLGNGTHAKPAGCSHLCNGAPETLDDNMECYNVTEEVAKRMTPDIPYTCWLGWCSKGECKRDNRTEVCYRGSERE
modifications: Amblyomma triste
- Kd (CCL11_HUMAN): 33 nM
- Kd (CCL13_HUMAN): 9 nM
- Kd (CCL14_HUMAN): 4.4 nM
- Kd (CCL18_HUMAN): 5.8 nM
- Kd (CCL2_HUMAN): 53 nM
- Kd (CCL3L1_HUMAN): 2.2 nM
- Kd (CCL3_HUMAN): 1.1 nM
- Kd (CCL4L1_HUMAN): 20 nM
- Kd (CCL4_HUMAN): 66 nM
- Kd (CCL7_HUMAN): 98 nM
- Kd (CCL8_HUMAN): 3.6 nM

B10: P1170_IXORI: novel CXC-binding tick CKBP, Ixodes ricinus (protein, listed as Ixodes ricinus)
chain: LGDEDQLFSVEYCGTNCTQQDDGKWTPCSGKNGKCKCYHEDGKRYGLCLYTEYTDFSQYPNPEGSEIENTRPRP
- Chemokines bound in yeast surface display and % cells over threshold fluorescence: CXCL8_HUMAN (CXCL8_HUMAN): CXCL8_HUMAN 81%

B11: P1181_AMBMA: tick CKBP, Amblyomma maculatum (protein, listed as Amblyomma maculatum)
chain: EEREDDNDYGGGCPFVVLGNGTHAKPAGCSHLCNGAPETLDNIECYNVTEEVAKRMTPDIPYTCWLGWCSKGECKRDNRTEVCYRGSERE
- Kd (CCL11_HUMAN): 20 nM
- Kd (CCL13_HUMAN): 19 nM
- Kd (CCL14_HUMAN): 47 nM
- Kd (CCL18_HUMAN): 10 nM
- Kd (CCL2_HUMAN): 74 nM
- Kd (CCL3L1_HUMAN): 3.3 nM
- Kd (CCL3_HUMAN): 2.2 nM
- Kd (CCL4L1_HUMAN): 35 nM
- Kd (CCL4_HUMAN): 53 nM
- Kd (CCL7_HUMAN): 120 nM
- Kd (CCL8_HUMAN): 14 nM
